{
  "source": "paper PMC12267440",
  "about": "“Human glycogenins maintain glucose homeostasis by regulating glycogen metabolism” (Nature Communications, 2025)",
  "binders": {"B1": {"name": "Homo sapiens glycogen synthase GS1 (GYS1), amino acids 1-737, N-terminal hexahistidine tag (enzyme, human, UniProt P13807 1-737, looked up)", "chain": "MPLNRTLSMSSLPGLEDWEDEFDLENAVLFEVAWEVANKVGGIYTVLQTKAKVTGDEWGDNYFLVGPYTEQGVRTQVELLEAPTPALKRTLDSMNSKGCKVYFGRWLIEGGPLVVLLDVGASAWALERWKGELWDTCNIGVPWYDREANDAVLFGFLTTWFLGEFLAQSEEKPHVVAHFHEWLAGVGLCLCRARRLPVATIFTTHATLLGRYLCAGAVDFYNNLENFNVDKEAGERQIYHRYCMERAAAHCAHVFTTVSQITAIEAQHLLKRKPDIVTPNGLNVKKFSAMHEFQNLHAQSKARIQEFVRGHFYGHLDFNLDKTLYFFIAGRYEFSNKGADVFLEALARLNYLLRVNGSEQTVVAFFIMPARTNNFNVETLKGQAVRKQLWDTANTVKEKFGRKLYESLLVGSLPDMNKMLDKEDFTMMKRAIFATQRQSFPPVCTHNMLDDSSDPILTTIRRIGLFNSSADRVKVIFHPEFLSSTSPLLPVDYEEFVRGCHLGVFPSYYEPWGYTPAECTVMGIPSISTNLSGFGCFMEEHIADPSAYGIYILDRRFRSLDDSCSQLTSFLYSFCQQSRRQRIIQRNRTERLSDLLDWKYLGRYYMSARHMALSKAFPEHFTYEPNEADAAQGYRYPRPASVPPSPSLSRHSSPHQSEDEEDPRNGPLEEDGERYDEDEEAAKDRRNIRAPEWPRRASCTSSTSGSKRNSVDTATSSSLSTPSEPLSPTSSLGEERN", "notes": "glycogen synthase GS1 (GYS1), Homo sapiens, UniProt P13807, amino acids 1-737; No cleavage of the His tag is described; the complexes were captured on Ni-NTA by it; The cryo-EM complex is called heterooctameric (D2 symmetry imposed); source: Sf9, co-infected with a GYG baculovirus, purified (Ni-NTA, Superose 6); not shown: His6 (PreScission protease-cleavable), N-terminal, kept"}, "B2": {"name": "Homo sapiens wild-type GYG2 (glycogenin-2) (enzyme, human, UniProt O15488-1 1-501, looked up)", "chain": "MSETEFHHGAQAGLELLRSSNSPTSASQSAGMTVTDQAFVTLATNDIYCQGALVLGQSLRRHRLTRKLVVLITPQVSSLLRVILSKVFDEVIEVNLIDSADYIHLAFLKRPELGLTLTKLHCWTLTHYSKCVFLDADTLVLSNVDELFDRGEFSAAPDPGWPDCFNSGVFVFQPSLHTHKLLLQHAMEHGSFDGADQGLLNSFFRNWSTTDIHKHLPFIYNLSSNTMYTYSPAFKQFGSSAKVVHFLGSMKPWNYKYNPQSGSVLEQGSASSSQHQAAFLHLWWTVYQNNVLPLYKSVQAGEARASPGHTLCHSDVGGPCADSASGVGEPCENSTPSAGVPCANSPLGSNQPAQGLPEPTQIVDETLSLPEGRRSEDMIACPETETPAVITCDPLSQPSPQPADFTETETILQPANKVESVSSEETFEPSQELPAEALRDPSLQDALEVDLAVSVSQISIEEKVKELSPEEERRKWEEGRIDYMGKDAFARIQEKLDRFLQ", "notes": "glycogenin-2 (GYG2), Homo sapiens, UniProt O15488-1, full-length; Two vectors are named (MultiBac pACEBac1 with full-length GYG2; Bac-to-Bac with wild-type GYG2 O15488-1); source: Sf9, co-infected with GS baculovirus, purified with GS (Ni-NTA, Superose 6); also isolated alone"}, "B3": {"name": "Homo sapiens GYG2 Y228F mutant (enzyme, human, UniProt O15488-1 1-501, looked up)", "chain": "MSETEFHHGAQAGLELLRSSNSPTSASQSAGMTVTDQAFVTLATNDIYCQGALVLGQSLRRHRLTRKLVVLITPQVSSLLRVILSKVFDEVIEVNLIDSADYIHLAFLKRPELGLTLTKLHCWTLTHYSKCVFLDADTLVLSNVDELFDRGEFSAAPDPGWPDCFNSGVFVFQPSLHTHKLLLQHAMEHGSFDGADQGLLNSFFRNWSTTDIHKHLPFIYNLSSNTMFTYSPAFKQFGSSAKVVHFLGSMKPWNYKYNPQSGSVLEQGSASSSQHQAAFLHLWWTVYQNNVLPLYKSVQAGEARASPGHTLCHSDVGGPCADSASGVGEPCENSTPSAGVPCANSPLGSNQPAQGLPEPTQIVDETLSLPEGRRSEDMIACPETETPAVITCDPLSQPSPQPADFTETETILQPANKVESVSSEETFEPSQELPAEALRDPSLQDALEVDLAVSVSQISIEEKVKELSPEEERRKWEEGRIDYMGKDAFARIQEKLDRFLQ", "notes": "glycogenin-2 (GYG2), Homo sapiens, UniProt O15488-1, putative autoglycosylation site mutated; also called GYG2 Y229F mutant (methods); source: baculovirus (Bac-to-Bac), purified with GS"}, "B4": {"name": "Homo sapiens wild-type GYG1 (glycogenin-1) (enzyme, human, UniProt P46976-2 1-333, looked up)", "chain": "MTDQAFVTLTTNDAYAKGALVLGSSLKQHRTTRRLVVLATPQVSDSMRKVLETVFDEVIMVDVLDSGDSAHLTLMKRPELGVTLTKLHCWSLTQYSKCVFMDADTLVLANIDDLFDREELSAAPDPGWPDCFNSGVFVYQPSVETYNQLLHLASEQGSFDGGDQGILNTFFSSWATTDIRKHLPFIYNLSSISIYSYLPAFKVFGASAKVVHFLGRVKPWNYTYDPKTKSVKSEAHDPNMTHPEFLILWWNIFTTNVLPLLQQFGLVKDTCSYVNVEDVSGAISHLSLGEIPAMAQPFVSSEERKERWEQGQADYMGADSFDNIKRKLDTYLQ", "modifications": "autoglycosylated (smear on blots; glucose polymer on Y195)", "notes": "glycogenin-1 (GYG1), Homo sapiens, UniProt P46976-2; also called GYG1 (WT); source: Sf9, co-infected with GS baculovirus, purified with GS (Ni-NTA, Superose 6)"}, "B5": {"name": "Homo sapiens GYG1 Y195F mutant (enzyme, human, UniProt P46976-2 1-333, looked up)", "chain": "MTDQAFVTLTTNDAYAKGALVLGSSLKQHRTTRRLVVLATPQVSDSMRKVLETVFDEVIMVDVLDSGDSAHLTLMKRPELGVTLTKLHCWSLTQYSKCVFMDADTLVLANIDDLFDREELSAAPDPGWPDCFNSGVFVYQPSVETYNQLLHLASEQGSFDGGDQGILNTFFSSWATTDIRKHLPFIYNLSSISIFSYLPAFKVFGASAKVVHFLGRVKPWNYTYDPKTKSVKSEAHDPNMTHPEFLILWWNIFTTNVLPLLQQFGLVKDTCSYVNVEDVSGAISHLSLGEIPAMAQPFVSSEERKERWEQGQADYMGADSFDNIKRKLDTYLQ", "notes": "glycogenin-1 (GYG1), Homo sapiens, UniProt P46976-2, autoglycosylation site mutated; source: Sf9, co-infected with GS baculovirus, purified with GS (Ni-NTA, Superose 6)"}},
  "key": {"[1]": {"biological_target": "the molecule itself", "experiment": "cryo-EM structure; purified GS•GYG2 complex from SEC peak fractions at ~2 mg/mL; Titan Krios 300 keV; D2 symmetry imposed"}, "[2]": {"biological_target": "T1, Homo sapiens glycogen synthase GS2 (GYS2), amino acids 1-703 (human, UniProt P54840 1-703)", "T1 construct": "glycogen synthase GS2 (GYS2), Homo sapiens, UniProt P54840, amino acids 1-703; The methods say that the His tag was put at the N-terminus of 'GS' without telling GS1 and GS2 apart; source: baculovirus (Bac-to-Bac), purified with GYG2", "T1 sequence (looked up)": "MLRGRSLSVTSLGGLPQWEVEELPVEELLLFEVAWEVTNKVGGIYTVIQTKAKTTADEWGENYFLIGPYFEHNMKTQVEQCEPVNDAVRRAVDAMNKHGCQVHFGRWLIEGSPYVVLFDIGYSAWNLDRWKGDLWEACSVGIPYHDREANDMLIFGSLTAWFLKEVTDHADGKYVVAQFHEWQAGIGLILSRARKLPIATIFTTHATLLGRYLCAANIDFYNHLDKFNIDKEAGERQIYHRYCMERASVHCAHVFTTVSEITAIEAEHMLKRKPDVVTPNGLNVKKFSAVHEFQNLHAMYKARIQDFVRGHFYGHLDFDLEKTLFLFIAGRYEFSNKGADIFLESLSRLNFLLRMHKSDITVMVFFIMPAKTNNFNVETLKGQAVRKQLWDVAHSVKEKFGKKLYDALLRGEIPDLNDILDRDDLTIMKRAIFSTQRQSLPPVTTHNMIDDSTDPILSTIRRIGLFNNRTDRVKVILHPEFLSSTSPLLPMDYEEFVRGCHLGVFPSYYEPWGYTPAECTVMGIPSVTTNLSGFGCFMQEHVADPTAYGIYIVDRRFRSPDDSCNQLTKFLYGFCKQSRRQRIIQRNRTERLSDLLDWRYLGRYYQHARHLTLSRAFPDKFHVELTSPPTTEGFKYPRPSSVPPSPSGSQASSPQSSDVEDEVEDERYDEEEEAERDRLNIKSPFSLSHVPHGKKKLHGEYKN", "experiment": "SEC; co-expressed in insect cells, captured on Ni-NTA by the His6 tag of GS, then Superose 6 16/60; SDS-PAGE and Western blot of peak fractions", "settings": "both partners purified"}, "[3]": {"biological_target": "B1", "experiment": "SEC; co-expressed in insect cells, captured on Ni-NTA by the His6 tag of GS, then Superose 6 16/60; SDS-PAGE and Western blot of peak fractions", "settings": "both partners purified"}},
  "data": [
    {"binder": "B1", "values": [
      {"measurement": "binding result", "setting": "[1]", "result": "binds"}
    ]},
    {"binder": "B2", "values": [
      {"measurement": "binding result", "setting": "[2]", "result": "binds"}
    ]},
    {"binder": "B3", "values": [
      {"measurement": "binding result", "setting": "[3]", "result": "binds"}
    ]},
    {"binder": "B4", "values": [
      {"measurement": "binding result", "setting": "[3]", "result": "binds"}
    ]},
    {"binder": "B5", "values": [
      {"measurement": "binding result", "setting": "[3]", "result": "binds"}
    ]}
  ]
}
